Key:
[1] = biological target: the molecule itself; assay: AUC; sedimentation velocity, c(s) analysis of each protein alone at 20 μM; 20 °C; 10 mM Tris/HCl pH 8, 150 mM NaCl, 0.1 mM TCEP
LC3B H27A = LC3B H27A (UniProt Q9GZQ8 2-119, His27 to alanine); assay: AUC; sedimentation velocity, c(s) analysis of equimolar mixtures, 20 μM each; 20 °C, 50,000 rpm; 10 mM Tris/HCl pH 8, 150 mM NaCl, 0.1 mM TCEP; shift of the fast-moving peak; conditions: both partners purified
LC3B I23R = LC3B I23R (UniProt Q9GZQ8 2-119, Ile23 to arginine); assay: as above; conditions: both partners purified
GABARAPL1 = biological target: T1, GABARAPL1 (UniProt Q9H0R8 1-117); assay: AUC; sedimentation velocity, 20 μM RhT5 88–296 EK/RD with 0–320 μM LC3B or GABARAPL1; S value of the fast peak against concentration, one-site binding model; 20 °C; 10 mM Tris/HCl pH 8, 150 mM NaCl, 0.1 mM TCEP; conditions: both partners purified
T1 construct: also called mATG8 isoform GABARAPL1

[2] = biological target: the molecule itself; assay: SEC-MALS + AUC; Trim5α mutants alone; SEC–MALLS on Superdex 75 Increase 10/300 in 10 mM Tris/HCl pH 7.8, 150 mM NaCl, 0.1 mM TCEP, 3 mM azide, and c(s) analysis of sedimentation velocity
[3] = biological target: autophagy-related protein LC3 B (LC3B), construct 2–119 (UniProt Q9GZQ8 2-119); assay: AUC; sedimentation velocity, c(s) analysis of equimolar mixtures, 20 μM each; 20 °C, 50,000 rpm; 10 mM Tris/HCl pH 8, 150 mM NaCl, 0.1 mM TCEP; shift of the fast-moving peak; conditions: both partners purified

Row | Binder | stoichiometry N [2] | binding result [3] | also measured
1 | Trim5α from Rhesus macaque, Bbox coiled-coil regions, residues 88–296 with the E120K/R121D mutation (domain or fragment, UniProt Q0PF16 88-296, looked up) PEEGQKVDHCARHGEKLLLFCQEDSKVICWLCKDSQEHRGHHTFLMEEVAQEYHVKLQTALEMLRQKQQEAEKLEADIREEKASWKIQIDYDKTNVSADFEQLREILDWEESNELQNLEKEEEDILKSLTKSETEMVQQTQYMRELISELEHRLQGSMMDLLQGVDGIIKRIENMTLKKPKTFHKNQRRVFRAPDLKGMLDMFRELTDA | – | – | stoichiometry N [1]: 2; binding result (LC3B H27A): binds; binding result (LC3B I23R): binds; Kd (GABARAPL1): 78 ± 6 µM
2 | W196A RhT5 88–296 EK/RD (domain or fragment, Rhesus macaque, UniProt Q0PF16 88-296, looked up) PEEGQKVDHCARHGEKLLLFCQEDSKVICWLCKDSQEHRGHHTFLMEEVAQEYHVKLQTALEMLRQKQQEAEKLEADIREEKASWKIQIDYDKTNVSADFEQLREILDAEESNELQNLEKEEEDILKSLTKSETEMVQQTQYMRELISELEHRLQGSMMDLLQGVDGIIKRIENMTLKKPKTFHKNQRRVFRAPDLKGMLDMFRELTDA | 2 | – | –
3 | RhT5 88–296 EK/RD E197A (domain or fragment, Rhesus macaque, UniProt Q0PF16 88-296, looked up) PEEGQKVDHCARHGEKLLLFCQEDSKVICWLCKDSQEHRGHHTFLMEEVAQEYHVKLQTALEMLRQKQQEAEKLEADIREEKASWKIQIDYDKTNVSADFEQLREILDWAESNELQNLEKEEEDILKSLTKSETEMVQQTQYMRELISELEHRLQGSMMDLLQGVDGIIKRIENMTLKKPKTFHKNQRRVFRAPDLKGMLDMFRELTDA | 2 | binds | –
4 | RhT5 88–296 EK/RD E192K (domain or fragment, Rhesus macaque, UniProt Q0PF16 88-296, looked up) PEEGQKVDHCARHGEKLLLFCQEDSKVICWLCKDSQEHRGHHTFLMEEVAQEYHVKLQTALEMLRQKQQEAEKLEADIREEKASWKIQIDYDKTNVSADFEQLRKILDWEESNELQNLEKEEEDILKSLTKSETEMVQQTQYMRELISELEHRLQGSMMDLLQGVDGIIKRIENMTLKKPKTFHKNQRRVFRAPDLKGMLDMFRELTDA | 2 | – | –
5 | RhT5 88–296 EK/RD Q203A (domain or fragment, Rhesus macaque, UniProt Q0PF16 88-296, looked up) PEEGQKVDHCARHGEKLLLFCQEDSKVICWLCKDSQEHRGHHTFLMEEVAQEYHVKLQTALEMLRQKQQEAEKLEADIREEKASWKIQIDYDKTNVSADFEQLREILDWEESNELANLEKEEEDILKSLTKSETEMVQQTQYMRELISELEHRLQGSMMDLLQGVDGIIKRIENMTLKKPKTFHKNQRRVFRAPDLKGMLDMFRELTDA | 2 | binds | –
6 | RhT5 88–296 EK/RD E192A (domain or fragment, Rhesus macaque, UniProt Q0PF16 88-296, looked up) PEEGQKVDHCARHGEKLLLFCQEDSKVICWLCKDSQEHRGHHTFLMEEVAQEYHVKLQTALEMLRQKQQEAEKLEADIREEKASWKIQIDYDKTNVSADFEQLRAILDWEESNELQNLEKEEEDILKSLTKSETEMVQQTQYMRELISELEHRLQGSMMDLLQGVDGIIKRIENMTLKKPKTFHKNQRRVFRAPDLKGMLDMFRELTDA | 2 | – | –
7 | RhT5 88–296 EK/RD Q189A (domain or fragment, Rhesus macaque, UniProt Q0PF16 88-296, looked up) PEEGQKVDHCARHGEKLLLFCQEDSKVICWLCKDSQEHRGHHTFLMEEVAQEYHVKLQTALEMLRQKQQEAEKLEADIREEKASWKIQIDYDKTNVSADFEALREILDWEESNELQNLEKEEEDILKSLTKSETEMVQQTQYMRELISELEHRLQGSMMDLLQGVDGIIKRIENMTLKKPKTFHKNQRRVFRAPDLKGMLDMFRELTDA | 2 | binds | –
8 | RhT5 88–296 EK/RD E198K (domain or fragment, Rhesus macaque, UniProt Q0PF16 88-296, looked up) PEEGQKVDHCARHGEKLLLFCQEDSKVICWLCKDSQEHRGHHTFLMEEVAQEYHVKLQTALEMLRQKQQEAEKLEADIREEKASWKIQIDYDKTNVSADFEQLREILDWEKSNELQNLEKEEEDILKSLTKSETEMVQQTQYMRELISELEHRLQGSMMDLLQGVDGIIKRIENMTLKKPKTFHKNQRRVFRAPDLKGMLDMFRELTDA | 2 | binds | –
9 | RhT5 88–296 EK/RD E206K (domain or fragment, Rhesus macaque, UniProt Q0PF16 88-296, looked up) PEEGQKVDHCARHGEKLLLFCQEDSKVICWLCKDSQEHRGHHTFLMEEVAQEYHVKLQTALEMLRQKQQEAEKLEADIREEKASWKIQIDYDKTNVSADFEQLREILDWEESNELQNLKKEEEDILKSLTKSETEMVQQTQYMRELISELEHRLQGSMMDLLQGVDGIIKRIENMTLKKPKTFHKNQRRVFRAPDLKGMLDMFRELTDA | 2 | – | –
10 | RhT5 88–296 EK/RD E206A (domain or fragment, Rhesus macaque, UniProt Q0PF16 88-296, looked up) PEEGQKVDHCARHGEKLLLFCQEDSKVICWLCKDSQEHRGHHTFLMEEVAQEYHVKLQTALEMLRQKQQEAEKLEADIREEKASWKIQIDYDKTNVSADFEQLREILDWEESNELQNLAKEEEDILKSLTKSETEMVQQTQYMRELISELEHRLQGSMMDLLQGVDGIIKRIENMTLKKPKTFHKNQRRVFRAPDLKGMLDMFRELTDA | 2 | – | –
